Test results reported in article PMC4860839, “Structures of the APC–ARM domain in complexes with discrete Amer1/WTX fragments reveal that it uses a consensus mode to recognize its binding partners” (Cell Discovery, 2015).

B1: APC–ARM, human APC (407–775), N-terminally His-tagged (domain or fragment, UniProt P25054 407-775, looked up)
chain: LHLLEQIRAYCETCWEWQEAHEPGMDQDKNPMPAPVEHQICPAVCVLMKLSFDEEHRHAMNELGGLQAIAELLQVDCEMYGLTNDHYSITLRRYAGMALTNLTFGDVANKATLCSMKGCMRALVAQLKSESEDLQQVIASVLRNLSWRADVNSKKTLREVGSVKALMECALEVKKESTLKSVLSALWNLSAHCTENKADICAVDGALAFLVGTLTYRSQTNTLAIIESGGGILRNVSSLIATNEDHRQILRENNCLQTLLQHLKSHSLTIVSNACGTLWNLSARNPKDQEALWDMGAVSMLKNLIHSKHKMIAMGSAAALRNLMANRPAKYKDANIMSPGSSLPSLHVRKQKALEAELDAQHLSETFDN
notes: human APC, ARM domain, residues 407–775; source: E. coli BL21(DE3), purified (Ni2+-NTA, Superdex200)
B2: Amer1 (766–823, Δ778–794) (domain or fragment, human, UniProt Q5JTC6 766-823, looked up)
chain: TVSFSQALVEFTSFTQNLPELPPMVTFDIADVERDGEGKCE
notes: human Amer1/WTX residues 766–823 with residues 778–794 deleted; not shown: GST, N-terminal, kept
B4: GST-Amer1 (766–823), core A3 (domain or fragment, human, UniProt Q5JTC6 766-823, looked up)
chain: TVSFSQALVEFTSNGNLFSSMSCSSDSDSSFTQNLPELPPMVTFDIADVERDGEGKCE
notes: human Amer1/WTX residues 766–823; not shown: GST, N-terminal, kept
B5: GST-Amer1 (716–834), A3 (domain or fragment, human, UniProt Q5JTC6 716-834, looked up)
chain: TCLMQLFQSDAMFEPDMQEANFGGSPRRAYPTYSPPEDPEEEEVEKEGNATVSFSQALVEFTSNGNLFSSMSCSSDSDSSFTQNLPELPPMVTFDIADVERDGEGKCEENPEFHNDEDL
notes: human Amer1/WTX residues 716–834; The methods list only A3: 766–823 among the GST constructs; not shown: GST, N-terminal, kept
B8: APC–ARM, human APC (407–751), N-terminally His-tagged (domain or fragment, UniProt P25054 407-751, looked up)
chain: LHLLEQIRAYCETCWEWQEAHEPGMDQDKNPMPAPVEHQICPAVCVLMKLSFDEEHRHAMNELGGLQAIAELLQVDCEMYGLTNDHYSITLRRYAGMALTNLTFGDVANKATLCSMKGCMRALVAQLKSESEDLQQVIASVLRNLSWRADVNSKKTLREVGSVKALMECALEVKKESTLKSVLSALWNLSAHCTENKADICAVDGALAFLVGTLTYRSQTNTLAIIESGGGILRNVSSLIATNEDHRQILRENNCLQTLLQHLKSHSLTIVSNACGTLWNLSARNPKDQEALWDMGAVSMLKNLIHSKHKMIAMGSAAALRNLMANRPAKYKDANIMSPGSSLPS
notes: human APC, armadillo repeat (ARM) domain, residues 407–751; source: E. coli BL21(DE3), purified (Ni2+-NTA, Superdex200)
B9: GST-Amer1 (496–508), core A2 (domain or fragment, human)
chain: PRDSYSGDALYEF
notes: human Amer1/WTX residues 496–508; The results call the ITC samples peptides; the ITC methods name GST-Amer1 proteins; also called Amer1-A2; not shown: GST, N-terminal, kept
B10: GST-Amer1 (365–375), A4 (domain or fragment, human)
chain: YQGGGEEMALP
notes: human Amer1/WTX residues 365–375; also called Amer1-A4; not shown: GST, N-terminal, kept
B11: GST-Amer1 (280–368), full A1 (domain or fragment, human, UniProt Q5JTC6 280-368, looked up)
chain: SLEEPHSPETGEKVVAGEVNPPNGPVGDPLSLLFGDVTSLKSFDSLTGCGDIIAEQDMDSMTDSMASGGQRANRDGTKRSSCLVTYQGG
notes: the methods print full A1: 280–364; also called full Amer1-A1; not shown: GST, N-terminal, kept
B12: GST-Amer1 (380–531), full A2 (domain or fragment, human, UniProt Q5JTC6 380-531, looked up)
chain: EEEEEEEEVELEEEEEEVKEEEEDDDLEYLWETAQMYPRPNMNLGYHPTTSPGHHGYMLLDPVRSYPGLAPGELLTPQSDQQESAPNSDEGYYDSTTPGFEDDSGEALGLVRRDCLPRDSYSGDALYEFYEPDDSLENSPPGDDCLYDLHGR
notes: the methods print full A2: 400–531; also called full Amer1-A2; not shown: GST, N-terminal, kept
B13: GST-Amer1 (325–335), core A1 (domain or fragment, human)
chain: LTGCGDIIAEQ
notes: human Amer1/WTX residues 325–335; The results call the ITC samples peptides; the ITC methods name GST-Amer1 proteins; also called Amer1-A1; not shown: GST, N-terminal, kept

Assays:
[1] = target: FL Amer1/WTX (pcDNA-Flag-Amer1) (not stated (human or mouse cDNA cloned)) (UniProt Q5JTC6); test: co-IP; HEK293T cells transiently transfected; immunoprecipitation with anti-GFP or anti-FLAG M2 beads, western blot
FL Amer1/WTX (pcDNA-Flag-Amer1) (not stated (human or mouse cDNA cloned)), sequence (Q5JTC6 whole entry, the tested form may be a part): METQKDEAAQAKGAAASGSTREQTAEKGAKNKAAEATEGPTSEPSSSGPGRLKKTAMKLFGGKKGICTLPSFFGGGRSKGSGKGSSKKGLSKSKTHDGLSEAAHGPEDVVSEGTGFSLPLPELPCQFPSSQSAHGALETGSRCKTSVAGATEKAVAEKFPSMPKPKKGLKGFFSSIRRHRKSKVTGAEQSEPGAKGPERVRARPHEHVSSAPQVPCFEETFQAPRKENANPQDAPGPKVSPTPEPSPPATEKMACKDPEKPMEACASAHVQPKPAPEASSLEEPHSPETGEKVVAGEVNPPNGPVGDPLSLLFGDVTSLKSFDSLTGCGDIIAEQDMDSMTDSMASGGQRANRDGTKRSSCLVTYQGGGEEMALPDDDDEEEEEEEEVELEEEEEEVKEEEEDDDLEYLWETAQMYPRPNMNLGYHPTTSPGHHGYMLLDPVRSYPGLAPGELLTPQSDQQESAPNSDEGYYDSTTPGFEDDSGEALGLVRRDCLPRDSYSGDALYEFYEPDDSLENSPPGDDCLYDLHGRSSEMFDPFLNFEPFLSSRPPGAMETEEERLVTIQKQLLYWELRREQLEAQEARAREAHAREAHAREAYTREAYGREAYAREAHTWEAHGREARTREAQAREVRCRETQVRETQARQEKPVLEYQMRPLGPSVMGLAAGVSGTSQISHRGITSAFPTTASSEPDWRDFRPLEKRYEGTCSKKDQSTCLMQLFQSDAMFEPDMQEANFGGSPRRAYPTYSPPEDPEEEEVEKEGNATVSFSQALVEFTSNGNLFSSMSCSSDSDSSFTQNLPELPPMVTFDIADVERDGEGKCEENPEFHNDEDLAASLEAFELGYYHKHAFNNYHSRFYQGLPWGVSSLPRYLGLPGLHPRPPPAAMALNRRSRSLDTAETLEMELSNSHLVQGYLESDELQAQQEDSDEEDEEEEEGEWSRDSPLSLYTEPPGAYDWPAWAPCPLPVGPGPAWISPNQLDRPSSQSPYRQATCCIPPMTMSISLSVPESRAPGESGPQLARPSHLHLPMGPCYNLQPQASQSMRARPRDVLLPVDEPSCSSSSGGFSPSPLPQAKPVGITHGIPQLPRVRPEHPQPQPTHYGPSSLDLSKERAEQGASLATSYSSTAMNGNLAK

[2] = target: B2; test: ITC; ITC200, 25 °C; 50 mM HEPES pH 7.5, 300 mM NaCl, 1 mM EDTA; typically 200 μM APC–ARM injected into 20 μM GST-Amer1 fragment, or 1 mM GST-Amer1 fragment into 80 μM APC–ARM; single-site model; details: both partners purified
[3] = target: B5; test: as above; details: both partners purified
[4] = target: B4; test: as above; details: both partners purified
[5] = target: B1; test: as above; details: both partners purified
[6] = target: B8; test: crystal structure; APC–ARM mixed with synthetic Amer1 peptide at 1:1.5; hanging drop, 14 °C; details: both partners purified
[7] = target: B11; test: ITC; ITC200, 25 °C; 50 mM HEPES pH 7.5, 300 mM NaCl, 1 mM EDTA; typically 200 μM APC–ARM injected into 20 μM GST-Amer1 fragment, or 1 mM GST-Amer1 fragment into 80 μM APC–ARM; single-site model; details: both partners purified
[8] = target: B9; test: as above; details: both partners purified
[9] = target: B12; test: as above; details: both partners purified
[10] = target: B10; test: as above; details: both partners purified
[11] = target: B13; test: as above; details: both partners purified
[12] = target: B8; test: as above; details: both partners purified

Molecule: pEGFP-APC–ARM-K516E/M717K double mutant (domain or fragment)
- reduction of association against wild type APC–ARM (densitometry) [1]: 60%

Molecule: B1
- dH [2]: -5.82 ± 0.251 kJ/mol
- stoichiometry N [2]: 1.02 ± 0.03 Amer1/APC ratio
- dH [3]: -7.61 ± 0.251 kJ/mol
- stoichiometry N [3]: 0.99 ± 0.02 Amer1/APC ratio
- dH [4]: -7.61 ± 0.167 kJ/mol
- stoichiometry N [4]: 1 ± 0.02 Amer1/APC ratio

Molecule: B2
- Kd [5]: 0.22 ± 0.11 µM

B3: Amer1-A1 peptide (residues 325–335) (peptide)
peptide: H-LTGCGDIIAEQ-OH
notes: human Amer1/WTX residues 325–335; also called hAmer1-A1 (325–335); source: synthetic peptide (Appeptide Company), HPLC purified
- binding result [6]: binds

Molecule: B4
- Kd [5]: 0.27 ± 0.07 µM

Molecule: B5
- Kd [5]: 0.13 ± 0.06 µM

B6: Amer1-A4 peptide (residues 365–375) (peptide)
peptide: H-YQGGGEEMALP-OH
notes: human Amer1/WTX residues 365–375; also called hAmer1-A4 (365–375); source: synthetic peptide (Appeptide Company), HPLC purified
- binding result [6]: binds

B7: Amer1-A2 peptide (residues 496–508) (peptide)
peptide: H-PRDSYSGDALYEF-OH
notes: human Amer1/WTX residues 496–508; also called hAmer1-A2 (496–508); source: synthetic peptide (Appeptide Company), HPLC purified
- binding result [6]: binds

Molecule: B8
- dH [7]: -4.69 ± 2.3 kJ/mol
- stoichiometry N [7]: 0.97 ± 0.39 Amer1/APC ratio
- dH [8]: -21.8 ± 0.837 kJ/mol
- stoichiometry N [8]: 1.08 ± 0.02 Amer1/APC ratio
- dH [9]: -14.6 ± 0.418 kJ/mol
- stoichiometry N [9]: 0.92 ± 0.02 Amer1/APC ratio
- dH [10]: -14.6 ± 0.418 kJ/mol
- stoichiometry N [10]: 0.95 ± 0.02 Amer1/APC ratio
- dH [11]: -3.77 ± 0.418 kJ/mol
- stoichiometry N [11]: 0.9 ± 0.08 Amer1/APC ratio

Molecule: B9
- Kd [12]: 1.1 ± 0.2 µM

Molecule: B10
- Kd [12]: 2 ± 0.3 µM

Molecule: B11
- Kd [12]: 8 ± 4.1 µM

Molecule: B12
- Kd [12]: 0.5 ± 0.1 µM

Molecule: B13
- Kd [12]: 14.4 ± 4.3 µM
